According to article PMC7614001 (2022):
Where “and” joins values, the source holds several entries; their conditions need not be identical. Equal entries are not always repeated.

T1: ALK5 ECD (Homo sapiens, UniProt P36897)
T1 chain: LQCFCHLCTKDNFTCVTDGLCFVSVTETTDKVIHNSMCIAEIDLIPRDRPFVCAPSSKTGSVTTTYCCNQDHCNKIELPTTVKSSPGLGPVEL

T2: ALK3 ECD (Homo sapiens, UniProt P36894)
T2 chain: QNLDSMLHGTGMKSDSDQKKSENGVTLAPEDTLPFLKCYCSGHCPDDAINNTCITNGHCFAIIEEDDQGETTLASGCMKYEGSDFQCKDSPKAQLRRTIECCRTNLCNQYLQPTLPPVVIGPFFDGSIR

T3: BMPR-II ECD (Homo sapiens, UniProt Q13873)
T3 chain: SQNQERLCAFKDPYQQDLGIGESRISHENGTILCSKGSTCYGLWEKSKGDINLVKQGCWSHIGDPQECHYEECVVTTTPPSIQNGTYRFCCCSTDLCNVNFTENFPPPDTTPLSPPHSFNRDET

T4: ALK6 ECD (Homo sapiens, UniProt O00238)
T4 chain: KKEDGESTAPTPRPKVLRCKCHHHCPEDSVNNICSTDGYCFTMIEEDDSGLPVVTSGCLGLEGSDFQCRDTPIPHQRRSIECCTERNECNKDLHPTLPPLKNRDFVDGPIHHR

T5: ACTR-IIB ECD (Homo sapiens, UniProt Q13705)
T5 chain: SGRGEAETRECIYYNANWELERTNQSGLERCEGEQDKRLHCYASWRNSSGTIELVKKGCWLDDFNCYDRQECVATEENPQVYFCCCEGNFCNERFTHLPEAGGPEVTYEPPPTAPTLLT

T6: ALK2/ACTR-IIB ECD (Homo sapiens, UniProt Q04771)
T6 chain 1: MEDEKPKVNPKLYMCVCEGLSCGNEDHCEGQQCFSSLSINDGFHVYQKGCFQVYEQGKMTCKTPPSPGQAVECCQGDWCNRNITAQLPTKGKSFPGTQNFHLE
T6 chain 2: T5 chain

T7: ALK2 ECD (Homo sapiens, UniProt Q04771)
T7 chain: T6 chain 1

T8: ALK2/BMPR-II ECD (Homo sapiens, UniProt Q04771)
T8 chain 1: T6 chain 1
T8 chain 2: T3 chain

B1: BMP-2 (protein)
chain: QAKHKQRKRLKSSCKRHPLYVDFSDVGWNDWIVAPPGYHAFYCHGECPFPLADHLNSTNHAIVQTLVNSVNSKIPKACCVPTELSAISMLYLDENEKVVLKNYQDMVVEGCGCR
B2: BMP-7 (protein)
chain: STGSKQRSQNRSKTPKNQEALRMANVAENSSSDQRQACKKHELYVSFRDLGWQDWIIAPEGYAAYYCEGECAFPLNSYMNATNHAIVQTLVHFINPETVPKPCCAPTQLNAISVLYFDDSSNVILKKYRNMVVRACGCH
B3: BMP-9 (protein)
chain: SAGAGSHCQKTSLRVNFEDIGWDSWIIAPKEYEAYECKGGCFFPLADDVTPTKHAIVQTLVHLKFPTKVGKACCVPTKLSPISVLYKDDMGVPTLKYHYEGMSVAECGCR
B4: BMP-4 (protein)
chain: SPKHHSQRARKKNKNCRRHSLYVDFSDVGWNDWIVAPPGYQAFYCHGDCPFPLADHLNSTNHAIVQTLVNSVNSSIPKACCVPTELSAISMLYLDEYDKVVLKNYQEMVVEGCGCR

Assays:
ALK5 ECD = molecular target: T1, ALK5 ECD; assay: BLI
ALK3 ECD = molecular target: T2, ALK3 ECD; assay: BLI
ALK1 ECD [1] = molecular target: T9, ALK1 ECD (Homo sapiens, UniProt P37023); assay: BLI
T9 sequence (P37023 22-118): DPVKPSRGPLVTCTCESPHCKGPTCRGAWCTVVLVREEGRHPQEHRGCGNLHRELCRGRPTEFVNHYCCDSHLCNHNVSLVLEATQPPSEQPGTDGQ

BMPR-II ECD = molecular target: T3, BMPR-II ECD; assay: BLI
ALK6 ECD = molecular target: T4, ALK6 ECD; assay: BLI
ACTR-IIB ECD = molecular target: T5, ACTR-IIB ECD; assay: BLI
ACTR-IIA ECD = ACTR-IIA ECD (Homo sapiens, UniProt P27037); assay: BLI
ACTR-IIA ECD, sequence (P27037 20-135): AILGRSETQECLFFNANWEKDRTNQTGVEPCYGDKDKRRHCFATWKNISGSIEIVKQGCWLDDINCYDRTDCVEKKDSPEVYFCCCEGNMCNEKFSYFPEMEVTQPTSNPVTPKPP

ALK1 ECD [2] = molecular target: T9, ALK1 ECD; assay: SPR
ALK2/ACTR-IIB ECD = molecular target: T6, ALK2/ACTR-IIB ECD; assay: BLI
ALK2 ECD = molecular target: T7, ALK2 ECD; assay: BLI
ALK2/BMPR-II ECD = molecular target: T8, ALK2/BMPR-II ECD; assay: BLI

Row | Binder | Kd (ALK5 ECD) [nM] | Kd (ALK3 ECD) [nM] | Kd (ALK1 ECD [1]) [nM] | Kd (BMPR-II ECD) [nM] | Kd (ALK6 ECD) [nM] | Kd (ACTR-IIB ECD) [nM] | Kd (ACTR-IIA ECD) [nM] | Kd (ALK1 ECD [2]) [nM] | Kd (ALK2/ACTR-IIB ECD) | Kd (ALK2 ECD) [nM] | Kd (ALK2/BMPR-II ECD)
1 | B1 | 5.8 | 0.21 | 13 | 5.4 | 0.5 | – | – | – | – | – | –
2 | B2 | 22.6 | – | 23.1 | 5.5 | 15 | 7.1 | 1.3 | – | – | – | –
3 | B3 | 51 | – | 0.2 | 0.8 | – | 1.4 | 1.7 | 0.0134 | – | – | –
4 | B4 | 21.9 | – | 55.4 | 56 | 3.1 | 26 | 21.4 | – | 103 nM and 88.7 nM | 10.5 | 55.8 nM and 90.7 nM
